Assay results reported in PMC4514642, “^99mTc-3P-RGD2 molecular imaging targeting integrin αvβ3 in head and neck squamous cancer xenograft” (Journal of Radioanalytical and Nuclear Chemistry, 2015).

What was measured:
[1] = Biodistribution in CNE-1 tumor bearing mice; format: in vivo; details: female, BALB/c nude, mouse, iv, total radioactivity, CNE-1 model, mean ± SD
Procedure: (§1) Female BALB/c nude mice (4–5 weeks of age, 15–20 g of weight) were purchased from the Department of Animal Experiment, Chinese Academy of Medical Sciences. The mice were subcutaneously implanted with 3 × 10^6 the HEP-2 cells (6 mice) or 2 × 10^5 the CNE-1 cells (6 mice) in 0.1 mL of saline into the right upper shoulder flanks. All procedures were performed in a laminar flow cabinet using the aseptic technique. Fifteen to nineteen days after inoculation, the tumor size was 1–1.5 cm, the tumor-bearing mice were used for biodistribution and imaging studies. Capital Medical University Animal Care and Use Committee approved the animal experiments.
(§2) The biodistribution of ^99mTc-3P-RGD2 in HEP-2 tumor bearing mice and CNE-1 tumor bearing mice was evaluated in groups of 3 mice per time point at 60 min and 120 min after injection of approximately 0.55–0.74 MBq of ^99mTc-3P-RGD2 in 0.1 mL saline via tail vein. From all mice, tumors and tissue samples (blood, heart, liver, spleen, kidney, lung, intestine and muscle) were harvested and weighed. Subsequently, radioactivity uptake was determined in γ-counter. Activity concentrations in the tissues were calculated as percentage of the injected dose per gram of tissue (%ID/g). To correct for radioactive decay, injection standards were counted simultaneously.

[2] = In vitro stability in serum by radio-HPLC; format: in vitro ADME; details: fetal calf serum (result text); newborn calf serum / 2 mL human serum in method; 37 MBq, 37 °C, incubation 6 h (analysed at 0 min, 3, 4, 6 h); radio-HPLC radiochemical purity
Procedure: The stability of ^99mTc-3P-RGD2 in newborn calf serum was determined after incubating the radiolabeled compound (37 MBq) in 2 mL […] at 37 °C. Every 20 μL mixture was injected directly into the radio-HPLC to analyze the radiochemistry purity, which was followed by radiolabeling efficiency analysis at 0 min, 3, 4, and 6 h.
Fig. 2 Radio-HPLC analysis of ^99mTc-3P-RGD2 stability. ^99mTc-3P-RGD2 incubated in new-born calf serum for 0 min (a), 3 h (b), 4 h (c), 6 h (d) after labeling

[3] = Biodistribution in HEP-2 tumor bearing mice; format: in vivo, BALB/c nude mice; details: female, BALB/c nude, mouse, iv, total radioactivity, HEP-2 model, mean ± SD
Procedure: as §1, §2

[4] = tested on: HEP-2 tumor; assay: Biodistribution in HEP-2 tumor bearing mice; format: in vivo, BALB/c nude mice; details: stated for HEP-2 and CNE-1 tumor models together
Procedure: as §1, §2

N=C(N)NCCC[C@@H]1NC(=O)[C@H](CCCCNC(=O)CCOCCOCCOCCOCCNC(=O)CC[C@H](NC(=O)CCOCCOCCOCCOCCNC(=O)c2ccc(NN)nc2)C(=O)NCCOCCOCCOCCOCCC(=O)NCCCC[C@@H]2NC(=O)[C@@H](Cc3ccccc3)NC(=O)[C@H](CC(=O)O)NC(=O)CNC(=O)[C@H](CCCNC(=N)N)NC2=O)NC(=O)[C@@H](Cc2ccccc2)NC(=O)[C@H](CC(=O)O)NC(=O)CNC1=O [^99mTc-3P-RGD2, [^99mTc(HYNIC-3P-RGD2)(tricine)(TPPTS)], metal not drawn]
tissue to tissue ratio at 2 h ([1]; CNE-1 tumor / blood, 120 min p.i., read-out: tumor/blood ratio): 2.49 ± 0.09
tissue to tissue ratio at 2 h ([1]; CNE-1 tumor / muscle, 120 min p.i., read-out: tumor/muscle ratio): 1.86 ± 0.07
tissue uptake at 1 h ([1]; CNE-1 tumor, 60 min p.i., tail vein 0.55–0.74 MBq, γ-counter, %ID/g, 3 mice per time point): 2.74 ± 0.51 %ID/g
tissue uptake at 2 h ([1]; CNE-1 tumor, 120 min p.i., tail vein 0.55–0.74 MBq, γ-counter, %ID/g, 3 mice per time point): 1.69 ± 0.18 %ID/g
stability in serum (radio-HPLC) [2]: stable
tissue to tissue ratio at 2 h ([3]; HEP-2 tumor / blood, 120 min p.i., read-out: tumor/blood ratio): 6.37 ± 0.68
tissue to tissue ratio at 2 h ([3]; HEP-2 tumor / muscle, 120 min p.i., read-out: tumor/muscle ratio): 4.44 ± 0.42
tissue uptake at 1 h ([3]; HEP-2 tumor, 60 min p.i., tail vein 0.55–0.74 MBq, γ-counter, %ID/g, 3 mice per time point): 6.25 ± 0.22 %ID/g
tissue uptake at 2 h ([3]; HEP-2 tumor, 120 min p.i., tail vein 0.55–0.74 MBq, γ-counter, %ID/g, 3 mice per time point): 4.56 ± 0.67 %ID/g
uptake in blood and muscle ([4]; 60 min p.i.): low
route of excretion [4]: excreted predominantly via the renal route
kidney uptake ([4]; selected organs): highest in the selected organs
